In patent publication US20070286806A1, “Methods and Compositions for Modulating a Steroid Receptor” (Mount Sinai Hospital, priority 2004, published 2007):

Legend:
Type in all cases: cell-based
[1] = biological target: T1, androgen receptor (Homo sapiens, UniProt P10275); experiment: DHT-induced AR transactivation in PC-3(AR)2 cells, MMTV-Luc reporter
T1 construct: expressed in transfected cells; host or cells: PC-3(AR)2 prostate cancer cells
T1 sequence (P10275 1-920): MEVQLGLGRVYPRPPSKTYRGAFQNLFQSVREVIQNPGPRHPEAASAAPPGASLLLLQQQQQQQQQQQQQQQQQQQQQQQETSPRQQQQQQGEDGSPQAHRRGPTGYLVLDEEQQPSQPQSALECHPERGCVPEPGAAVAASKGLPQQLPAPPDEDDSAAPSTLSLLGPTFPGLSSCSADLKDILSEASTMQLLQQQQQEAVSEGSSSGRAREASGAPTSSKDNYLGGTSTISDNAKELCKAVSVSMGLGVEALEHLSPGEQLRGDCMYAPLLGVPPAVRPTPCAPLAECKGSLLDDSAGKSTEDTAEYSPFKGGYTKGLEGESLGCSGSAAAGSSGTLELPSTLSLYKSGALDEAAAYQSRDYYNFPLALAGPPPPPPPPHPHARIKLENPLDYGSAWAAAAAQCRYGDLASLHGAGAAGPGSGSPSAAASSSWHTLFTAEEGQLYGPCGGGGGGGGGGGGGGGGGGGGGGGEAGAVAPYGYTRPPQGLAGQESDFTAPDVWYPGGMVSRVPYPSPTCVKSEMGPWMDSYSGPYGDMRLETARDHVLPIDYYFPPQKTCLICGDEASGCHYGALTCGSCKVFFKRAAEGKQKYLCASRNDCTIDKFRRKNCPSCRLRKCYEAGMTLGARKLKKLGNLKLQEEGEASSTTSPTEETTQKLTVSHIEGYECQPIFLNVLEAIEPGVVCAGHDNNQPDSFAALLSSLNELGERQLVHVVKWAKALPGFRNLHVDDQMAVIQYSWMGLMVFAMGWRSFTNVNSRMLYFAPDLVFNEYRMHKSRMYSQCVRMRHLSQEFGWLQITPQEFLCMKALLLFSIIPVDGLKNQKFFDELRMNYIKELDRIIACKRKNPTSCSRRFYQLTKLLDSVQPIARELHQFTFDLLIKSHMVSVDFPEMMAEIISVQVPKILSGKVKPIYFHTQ
Procedure: (§1) Prostate cancer cells (stable transfected with androgen receptor) were transiently transfected with PSF-A expression vector together with a MMTV-Luc reporter vector. Cells were treated with either vehicle or 1 nM DHT for at least 24 hours. Luciferase activities were measured and normalized by β-galactosidase acitvity. Data shown in FIG. 10 are the mean of three separate experiments performed in triplicate ±S.E. Note: the empty vector pcDNA3 was added to the DNA mixture to ensure that the amounts of CMV promoter in all the transfection assays are equal.
as §1, with “(stably” for “(stable”, “PSF-F” for “PSF-A”, “11” for “10”
PC-3(AR)2 cells are PC-3 cells rendered androgen sensitive by stable transfection of a human androgen receptor cDNA. PC-3(AR)2 cells were transiently transfected with a constant AR expression vector together without or with increasing doses of PSF-A vectors. […]

[2] = tested on: PR protein; experiment: PR protein levels on over-expression of PSF in 293T cells; settings: over-expression in 293T cells
[3] = biological target: T2, glucocorticoid receptor (Mesocricetus auratus, UniProt A0A1U8BQ22); experiment: Glucocorticoid receptor transactivation in SHM cells, MMTV-Luc reporter; settings: 1 nM Dex
T2 construct: endogenous in cells; host or cells: SHM (Syrian hamster myocyte) cells
T2 sequence (A0A1U8BQ22 1-774): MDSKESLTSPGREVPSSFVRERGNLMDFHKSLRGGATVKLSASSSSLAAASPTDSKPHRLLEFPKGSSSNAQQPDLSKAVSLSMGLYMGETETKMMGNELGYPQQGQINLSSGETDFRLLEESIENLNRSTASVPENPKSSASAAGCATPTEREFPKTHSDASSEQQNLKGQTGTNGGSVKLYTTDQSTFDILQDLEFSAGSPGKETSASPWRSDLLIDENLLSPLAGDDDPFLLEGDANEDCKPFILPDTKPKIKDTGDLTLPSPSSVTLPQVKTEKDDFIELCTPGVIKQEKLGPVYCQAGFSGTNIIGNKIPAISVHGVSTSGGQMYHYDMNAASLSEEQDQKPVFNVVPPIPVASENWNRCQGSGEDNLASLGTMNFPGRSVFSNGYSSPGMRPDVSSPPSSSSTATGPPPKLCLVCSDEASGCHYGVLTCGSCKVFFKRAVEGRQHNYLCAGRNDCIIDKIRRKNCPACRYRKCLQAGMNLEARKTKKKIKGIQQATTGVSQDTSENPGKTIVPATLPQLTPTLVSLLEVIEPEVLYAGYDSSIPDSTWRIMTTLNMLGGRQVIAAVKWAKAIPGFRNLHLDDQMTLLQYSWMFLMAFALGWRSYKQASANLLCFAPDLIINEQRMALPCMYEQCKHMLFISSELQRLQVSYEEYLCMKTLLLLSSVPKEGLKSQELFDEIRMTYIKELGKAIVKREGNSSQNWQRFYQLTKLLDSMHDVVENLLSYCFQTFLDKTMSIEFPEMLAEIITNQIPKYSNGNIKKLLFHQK
Procedure: as §1, with “Hamster smooth muscle” for “Prostate cancer”, “(SHM)” for “(stable transfected with androgen receptor)”, “Dex” for “DHT”, “13” for “10”

B1: polypyrimidine tract binding protein-associated splicing factor (protein)
chain: MSRDRFRSRGGGGGGFHRRGGGGGRGGLHDFRSPPPGMGLNQNRGPMGPGPGQSGPKPPIPPPPPHQQQQQPPPQQPPPQQPPPHQPPPHPQPHQQQQPPPPPQDSSKPVVAQGPGPAPGVGSAPPASSSAPPATPPTSGAPPGSGPGPTPTPPPAVTSAPPGAPPPTPPSSGVPTTPPQAGGPPPPPAAVPGPGPGPKQGPGPGGPKGGKMPGGPKPGGGPGLSTPGGHPKPPHRGGGEPRGGRQHHPPYHQQHHQGPPPGGPGGRSEEKISDSEGFKANLSLLRRPGEKTYTQRCRLFVGNLPADITEDEFKRLFAKYGEPGEVFINKGKGFGFIKLESRALAEIAKAELDDTPMRGRQLRVRFATHAAALSVRNLSPYVSNELLEEAFSQFGPIERAVVIVDDRGRSTGKGIVEFASKPAARKAFERCSEGVFLLTTTPRPVIVEPLEQLDDEDGLPEKLAQKNPMYQKERETPPRFAQHGTFEYEYSQRWKSLDEMEKQQREQVEKNMKDAKDKLESEMEDAYHEHQANLLRQDLMRRQEELRRMEELHNQEMQKRKEMQLRQEEERRRREEEMMIRQREMEEQMRRQREESYSRMGYMDPRERDMRMGGGGAMNMGDPYGSGGQKFPPLGGGGGIGYEANPGVPPATMSGSMMGSDMRTERFGQGGAGPVGGQGPRGMGPGTPAGYGRGREEYEGPNKKPRF
notes: expressed from transfected His-PSF vector or in vitro translated
- production/secretion of PSA [1]: blocks
- androgen receptor activation of the MMTV promoter ([1]; PC-3(AR)2 cells, 1 nM DHT): blocks
- PR protein levels [2]: reduced PR protein levels
- glucocorticoid receptor activation of the MMTV promoter [3]: blocks its activation of the MMTV promoter
